Source: patent US20240158509A1 (MOMENTA PHARMACEUTICALS, published 2024)

Experiments:
[1] = biological target: T1, endogenous cynomolgus monkey FcRn in monocytes (cynomolgus monkey, UniProt Q8SPV9 24-365; Q8SPW0 21-119); assay: target occupancy in vivo: monocytes from lysed whole blood of cynomolgus monkeys after one i.v. dose, fixed and permeabilized, unoccupied FcRn stained with Dy650-labeled N027, FACS
T1 construct: whole, on cells; Target occupancy was measured ex vivo by FACS on fixed and permeabilized monocytes
T1 sequence (Q8SPV9 24-365, chain 1 of 2): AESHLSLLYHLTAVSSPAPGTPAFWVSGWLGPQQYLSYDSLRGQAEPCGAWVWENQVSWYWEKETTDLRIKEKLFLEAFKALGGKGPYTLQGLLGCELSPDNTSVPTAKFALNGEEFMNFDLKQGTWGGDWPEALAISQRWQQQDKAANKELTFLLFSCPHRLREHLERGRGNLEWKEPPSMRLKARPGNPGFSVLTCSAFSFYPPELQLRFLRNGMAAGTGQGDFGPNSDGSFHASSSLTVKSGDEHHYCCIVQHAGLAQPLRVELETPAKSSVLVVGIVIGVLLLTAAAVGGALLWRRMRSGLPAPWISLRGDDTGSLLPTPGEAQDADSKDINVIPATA
T1 sequence (Q8SPW0 21-119, chain 2 of 2): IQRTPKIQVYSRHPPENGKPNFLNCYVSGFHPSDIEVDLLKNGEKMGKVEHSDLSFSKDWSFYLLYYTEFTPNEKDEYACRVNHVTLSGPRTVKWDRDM

[2] = biological target: endogenously expressed human FcRn (human, UniProt P55899 24-365; P61769 21-119); assay: cell-based or functional assay

- binding result [1]: binds
- intracellular IgG accumulation (VivoTag645-IgG, gMFI), ~IC50, HAECs [2]: ~0.12 µg/mL
- intracellular IgG accumulation (VivoTag645-IgG, gMFI), ~IC50, HUVECs [2]: ~0.15 µg/mL
- intracellular IgG accumulation (VivoTag645-IgG, gMFI), ~IC50, HVTs [2]: ~0.07 µg/mL
B1: N027 (antibody, human IgG1, lambda, N297A)
heavy: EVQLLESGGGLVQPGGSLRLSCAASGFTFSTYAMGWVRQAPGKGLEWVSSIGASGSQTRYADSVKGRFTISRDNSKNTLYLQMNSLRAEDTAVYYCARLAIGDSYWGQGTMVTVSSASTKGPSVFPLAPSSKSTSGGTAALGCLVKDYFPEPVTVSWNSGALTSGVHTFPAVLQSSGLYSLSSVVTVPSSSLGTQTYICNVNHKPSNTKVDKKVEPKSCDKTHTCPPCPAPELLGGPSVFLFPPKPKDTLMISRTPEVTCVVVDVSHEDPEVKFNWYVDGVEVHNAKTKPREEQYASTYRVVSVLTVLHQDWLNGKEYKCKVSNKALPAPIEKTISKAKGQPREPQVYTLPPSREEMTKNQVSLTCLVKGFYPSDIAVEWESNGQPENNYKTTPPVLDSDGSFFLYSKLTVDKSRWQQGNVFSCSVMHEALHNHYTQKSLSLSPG
light: QSALTQPASVSGSPGQSITISCTGTGSDVGSYNLVSWYQQHPGKAPKLMIYGDSERPSGVSNRFSGSKSGNTASLTISGLQAEDEADYYCSSYAGSGIYVFGTGTKVTVLGQPKAAPSVTLFPPSSEELQANKATLVCLISDFYPGAVTVAWKADSSPVKAGVETTTPSKQSNNKYAASSYLSLTPEQWKSHKSYSCQVTHEGSTVEKTVAPTECS
notes: Full-length IgG; In the occupancy assays unlabeled N027 was followed by dye-labeled N027 (Dy650, VivoTag645); DyLight594-N027 was used for imaging; also called M281; anti-FcRn antibody N027
